“And” between values parts separate entries of the source, which are not always exact repeats. Equal entries are not always repeated.
Legend:
[1] = target: T1, CEACAM5 (Sino Biological) (human, UniProt P06731 35-685); test: binding ELISA on plate-coated CEACAM (0.5 µg/mL); antibody at 1.67, 0.062 and 0.0069 µg/mL; signal as % of parent IgG on CEACAM1 at 1.67 µg/mL on the same plate
T1 construct: also called hCEACAM5
T1 sequence (looked up): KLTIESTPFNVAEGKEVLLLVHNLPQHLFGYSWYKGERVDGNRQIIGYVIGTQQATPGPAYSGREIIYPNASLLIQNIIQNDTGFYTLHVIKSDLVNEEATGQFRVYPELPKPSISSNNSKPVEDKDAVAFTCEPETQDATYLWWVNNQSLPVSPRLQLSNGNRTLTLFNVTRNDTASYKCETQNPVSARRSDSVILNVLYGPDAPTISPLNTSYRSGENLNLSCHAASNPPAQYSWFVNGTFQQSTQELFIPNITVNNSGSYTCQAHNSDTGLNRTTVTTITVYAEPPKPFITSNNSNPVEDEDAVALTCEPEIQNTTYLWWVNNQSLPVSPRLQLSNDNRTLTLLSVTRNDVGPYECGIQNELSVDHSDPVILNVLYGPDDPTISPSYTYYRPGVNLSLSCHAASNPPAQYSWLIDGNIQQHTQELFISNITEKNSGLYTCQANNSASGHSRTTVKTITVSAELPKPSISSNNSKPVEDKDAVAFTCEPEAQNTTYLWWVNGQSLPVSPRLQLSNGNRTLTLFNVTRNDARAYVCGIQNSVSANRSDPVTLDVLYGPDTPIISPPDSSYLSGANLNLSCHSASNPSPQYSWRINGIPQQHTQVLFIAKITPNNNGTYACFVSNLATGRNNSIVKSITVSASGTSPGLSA

[2] = target: T2, CEACAM6 (Sino Biological) (human, UniProt P40199 35-320); test: as above
T2 construct: also called hCEACAM6
T2 sequence (looked up): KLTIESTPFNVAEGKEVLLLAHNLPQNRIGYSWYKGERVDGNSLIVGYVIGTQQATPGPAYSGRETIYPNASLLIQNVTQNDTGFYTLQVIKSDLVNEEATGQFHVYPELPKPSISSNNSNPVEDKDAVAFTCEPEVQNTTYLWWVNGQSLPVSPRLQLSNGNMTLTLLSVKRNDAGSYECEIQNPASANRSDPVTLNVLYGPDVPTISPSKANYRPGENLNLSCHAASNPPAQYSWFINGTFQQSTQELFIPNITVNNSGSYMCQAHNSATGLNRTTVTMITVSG

[3] = target: T3, CEACAM3 (Sino Biological) (human, UniProt P40198 35-155, limits assumed); test: as above
T3 construct: also called hCEACAM3
T3 sequence (looked up): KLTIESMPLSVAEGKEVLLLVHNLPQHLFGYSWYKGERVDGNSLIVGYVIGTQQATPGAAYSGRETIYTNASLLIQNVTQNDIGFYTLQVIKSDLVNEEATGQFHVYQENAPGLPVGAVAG

[4] = target: T4, CEACAM1-HIS (Sino Biologics Inc.) (Homo sapiens (Human), UniProt P13688 35-428); test: SPR single-cycle, IgG on Protein A
T4 construct: bought; not shown: His tag
T4 sequence: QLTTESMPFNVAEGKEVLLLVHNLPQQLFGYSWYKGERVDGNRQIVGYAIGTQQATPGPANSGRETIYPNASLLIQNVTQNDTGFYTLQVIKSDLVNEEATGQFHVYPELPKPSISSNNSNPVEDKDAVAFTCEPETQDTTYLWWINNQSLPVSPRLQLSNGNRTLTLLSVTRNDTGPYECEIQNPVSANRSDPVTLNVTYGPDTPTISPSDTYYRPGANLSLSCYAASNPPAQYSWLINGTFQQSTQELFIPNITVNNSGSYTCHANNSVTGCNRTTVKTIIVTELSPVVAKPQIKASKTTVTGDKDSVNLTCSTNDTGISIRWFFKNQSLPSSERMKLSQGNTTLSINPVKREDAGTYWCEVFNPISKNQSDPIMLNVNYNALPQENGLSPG
Procedure, shortened: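 Single-cycle kinetics at 25° C in HBS-P+ (pH 7.4), antibodies from HEK EBNA supernatants at 1 μg/mL captured on Protein A (~100 RU). CEACAM1 injected at 3.125–50 nM (2-fold, 5 points), 150 s association, 150 s dissociation. Reference-channel and blank-run subtraction applied.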

B1: VH2 N56Q/Vκ4 S27(f)A IgG (antibody, V domains shown)
VH: EVQLLESGGGLVQPGGSLRLSCAASGFSFSDYYLYWVRQAPGKGLEWVATISVGGGQTSYADSVKGRFTISRDNSKNTLYLQMNSLRAEDTAMYYCTRGLYYGPAWFAYWGQGTLVTVSS
VL: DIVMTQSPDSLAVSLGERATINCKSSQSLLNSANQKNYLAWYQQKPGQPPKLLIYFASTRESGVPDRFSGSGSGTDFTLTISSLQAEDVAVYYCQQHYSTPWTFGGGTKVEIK
notes: IgG4 S241P, kappa; also called Parent; Parent IgG
Q: Which results are given for B1?
A: binding result [1]: no binding (tested: 1.67 µg/mL); binding result [2]: no binding (tested: 1.67 µg/mL); binding result [3]: no binding (tested: 1.67 µg/mL)

B2: chimeric parental antibody VH0/Vκ0 (antibody, IgG4, V domains shown)
VH: EVQLVESGGGFVKPGGSLKLSCAASGFSFSDYYLYWVRQTPEKRLEWVATISVGGGNTSYPDSVKGRFTISRDNAKNNLYLQMSSLKSEDTAMYYCTRGLYYGPAWFAYWGQGTLVTVSA
VL: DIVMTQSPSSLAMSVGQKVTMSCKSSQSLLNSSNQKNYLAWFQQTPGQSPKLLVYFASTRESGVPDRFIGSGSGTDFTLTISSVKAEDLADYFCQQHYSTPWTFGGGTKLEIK
notes: IgG4 (S241P), kappa; also called Chimera; chimeric antibody
Q: How did the Kd [4] turn out when B2 was run?
A: 47.6 nM and 43.2 nM
